Measured values from PMC3295402 (Journal of Experimental Botany, 2012).

Legend:
[1] = molecular target: cryptogein (wt cryptogein, Cry) (Phytophthora cryptogea, UniProt P15570); assay: biochemical
[2] = molecular target: cryptogein (wt cryptogein, Cry) (Phytophthora cryptogea, UniProt P15570, L61F); assay: biochemical
[3] = molecular target: high-affinity binding site on the tobacco plasma membrane (tobacco (endogenous in Xanthi cell suspension)); assay: filter binding of FITC-labelled ligand to plasma membrane preparations

Row | Molecule | amount of bound molecules at 10 nM (pmol mg^−1 plasma membrane proteins) [3] | amount of bound molecules at 30 nM (pmol mg^−1 plasma membrane proteins) [3] | further results
1 | CC(C)[C@@H](C)/C=C/[C@@H](C)[C@H]1CC[C@H]2C3=CC=C4C[C@@H](O)CC[C@]4(C)C3=CC[C@]12C [DHE] |  |  | Kd [1]: 560 ± 40 nM; Kd [2]: 850 ± 50 nM
2 | wild type (wt) cryptogein (ligand, fluorescein isothiocyanate (FITC) label, site not stated) GTACTATQQTAAYKTLVSILSDASFNQCSTDSGYSMLTAKALPTTAQYKLMCASTACNTMIKKIVTLNPPNCDLTVPTSGLVLNVYSYANGFSNKCSSL | 57.4 |  | 
3 | cryptogein Leu41Phe mutant (ligand, fluorescein isothiocyanate (FITC) label, site not stated) GTACTATQQTAAYKTLVSILSDASFNQCSTDSGYSMLTAKAFPTTAQYKLMCASTACNTMIKKIVTLNPPNCDLTVPTSGLVLNVYSYANGFSNKCSSL |  | 14.4 | 
4 | cryptogein Val84Phe mutant (ligand, fluorescein isothiocyanate (FITC) label, site not stated) GTACTATQQTAAYKTLVSILSDASFNQCSTDSGYSMLTAKALPTTAQYKLMCASTACNTMIKKIFTLNPPNCDLTVPTSGLVLNVYSYANGFSNKCSSL | 55.3 |  | 
5 | cryptogein Leu41Phe/Val84Phe double mutant (ligand, fluorescein isothiocyanate (FITC) label, site not stated) GTACTATQQTAAYKTLVSILSDASFNQCSTDSGYSMLTAKAFPTTAQYKLMCASTACNTMIKKIVTLNPPNCDLTVPTSGLVLNFYSYANGFSNKCSSL |  | 16.9 | 
